This data set concerns the molecule itself. Kind of data set: dynamic light scattering; 10 µM ELP in PBS on a heating ramp (7-40 °C in the legend, 7-37 °C in the methods), scattering angle 90°; nanoparticles between the CMT and Tt,bulk (18.5 and 27 °C for ELP-[*M1V3-40]-[I-90]; 19 and 31 °C for ELP-[*M1V3-60]-[I-90]).

B1: ELP-[*M1V3-40]-[I-90] (other)
chain: MWVPGVGVPGMGVPGVGVPGVGVPGVGVPGMGVPGVGVPGVGVPGVGVPGMGVPGVGVPGVGVPGVGVPGMGVPGVGVPGVGVPGVGVPGMGVPGVGVPGVGVPGVGVPGMGVPGVGVPGVGVPGVGVPGMGVPGVGVPGVGVPGVGVPGMGVPGVGVPGVGVPGVGVPGMGVPGVGVPGVGVPGVGVPGMGVPGVGVPGVGIGVPGIGVPGIGVPGIGVPGIGVPGIGVPGIGVPGIGVPGIGVPGIGVPGIGVPGIGVPGIGVPGIGVPGIGVPGIGVPGIGVPGIGVPGIGVPGIGVPGIGVPGIGVPGIGVPGIGVPGIGVPGIGVPGIGVPGIGVPGIGVPGIGVPGIGVPGIGVPGIGVPGIGVPGIGVPGIGVPGIGVPGIGVPGIGVPGIGVPGIGVPGIGVPGIGVPGIGVPGIGVPGIGVPGIGVPGIGVPGIGVPGIGVPGIGVPGIGVPGIGVPGIGVPGIGVPGIGVPGIGVPGIGVPGIGVPGIGVPGIGVPGIGVPGIGVPGIGVPGIGVPGIGVPGIGVPGIGVPGIGVPGIGVPGIGVPGIGVPGIGVPGIGVPGIGVPGIGVPGIGVPGIGVPGIGVPGIGVPGIGVPGIGVPGIGVPGIGVPGIGVPGIGVPGIGVPGIGVPGIGVPGIGVPGY
modifications: Thioether side chain of Met residues oxidized into sulfoxide M(O) with H2O2 (11 Met); two Met residues were found oxidized into sulfone M(O2)
notes: N-terminal leader of the elastin-like polypeptide; C-terminal residue; also called oxidized ELP-[M1V3-40]-[I-90]; source: E. coli BL21 Star (DE3), purified (inverse transition cycling with ammonium sulfate, desalting), then oxidised with H2O2
Take B1: the binding result is recorded as “binds”.

The record behind these values is publication PMC8125372, “Refining the Design of Diblock Elastin-Like Polypeptides for Self-Assembly into Nanoparticles” (Polymers, 2021).
